Earlier results on two substances are cited in PMC4517114.

Read-outs that look alike come from different tables or passages of the source.

For series [1], the target named is MAGI-1 PDZ (Homo sapiens) (UniProt Q96QZ7).
Series [2] shares this target. The source holds these as a separate data set.

Sequence of UniProt Q96QZ7 (Q96QZ7 472-554): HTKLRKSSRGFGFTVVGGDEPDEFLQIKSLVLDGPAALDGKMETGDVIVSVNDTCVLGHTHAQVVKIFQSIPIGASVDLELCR

Usually Kd stands for the free concentration of one partner at which half of the binding sites on the other are occupied at equilibrium, for simple one-to-one binding. For HPV16 E6 (from UniProt P03126), the Kd in series [1] is 3000 nM.
For the substance HPV18 E6 (from UniProt P06463), in series [2], the Kd was 1500 nM.
